Data on one molecule can be found in patent US7795390B2, “Biological substance nesfatin and its related substances and uses thereof” (Teijin Pharma Limited, priority 2005, dated 2010).

The test system of one assay is Agouti-yellow mice. Kind of assay: Intraperitoneal administration of nesfatin-1 to Agouti-yellow mice, food intake. The following applies: nesfatin-1 (10 pmol) ip, 0-3 hours. The format is in vivo, mouse. The text has this:
In the experiment on the animal model of obesity, C57BL/6J mice were used as the control group and Agouti-yellow mice were used as the animal model of obesity, and these animals were purchased from Nippon Charles River (Jackson Lab.). The housing condition and the week age of the mice used were similar to those for the ICR mice, whereas individuals weighing 25-28 g for the control group mice and individuals weighing 31-38 g for the Agouti-yellow mice were selected and used. […] Other conditions were similar to those in the above.
(§1) Each mouse that received administration was placed in an individual cage, and during 0-3 hours after the administration the weight decreased of the pellet food was measured to determine the amount of food intake. For testing of significant difference, analysis of variance was used.

In another assay the test system is C57BL/6J mice. The experiment in a line: Intraperitoneal administration of nesfatin-1 to c57BL/6J mice, food intake and blood biochemical parameters. Format: in vivo. To be noted: recombinant mouse nesfatin-1 10 nmol ip; 0-3 hours; vs saline. The procedure:
As experimental animals, 7 week-old male c57BL/6J mice were purchased from Nippon Clea, and were housed in a cycle of 12 hours of the light period from 6 a.m. to 6 p.m. and […] of the dark period from 6 p.m. to 6 a.m. the next morning and were allowed free access to a pellet food (Nippon Clea, CE-2), and kept at 22° C.
Into the abdominal cavity of the c57BL/6J mice, 10 nmol of recombinant mouse nesfatin-1 prepared in Working Example 16 dissolved in 100 μl of physiological saline was administered, and as the control sample physiological saline alone was used. Using a tuberculin syringe equipped with a 26G needle, 100 μl each of the sample was administered once into the abdominal cavity of each mouse (5 animals per group), and the time of administration was immediately before the start (6 p.m.) of the dark period.
Each mouse that received administration was placed in an individual cage, and during 0-3 hours after the administration the weight decreased of the pellet food was measured to determine the amount of food intake. Also, 3 hours after the administration each mouse was sacrificed by decapitation to collect whole blood, and serum was collected therefrom. For the serum, the contents of glucose, total cholesterol and triglyceride were measured using commercial reagents for determination (KYOWA MEDEX, Determiner L GLUII, Determiner L TCII, Determiner L TGII).

In the next assay the test system is Zucker fa/fa rats. Kind of assay: nesfatin-1 administration into the third ventricle of Zucker fa/fa rats, food intake. Format: in vivo, rat. The following applies: recombinant mouse nesfatin-1 5 pmol. As to the method: As rats, 8 week-old male Zucker fa/fa (Zucker) rats and Zucker +/+(Lean) rats as the control animal were purchased from Nippon Charles River, and were housed in a cycle of 12 hours of the light period from 6 a.m. to 6 p.m. and 12 hours of the dark period from 6 p.m. to 6 a.m. the next morning and fed a powder food (Nippon Clea, CE-2), and kept at 22° C., and throughout the experiment period, a similar condition was continued in housing. After preliminary housing of the purchased rats for over one week, individuals weighing 200-250 g were selected from among 9 to 10 week-old individuals.
The sample used for administration was one in which the recombinant mouse nesfatin-1 prepared in Working Example 16 was dissolved to 5 pmol in 5 μl of PBS, and as the control sample physiological saline (Saline) was used. Five μl of the samples prepared were administered into the third ventricle of each rat for the group of five each of Zucker rats and the Lean rats per group (the Zucker/nesfatin-1 group, the Lean/nesfatin-1 group, the Zucker/Saline group, the Lean/Saline group). […]
After intraventricular administration, the amount of food intake was determined by measuring the amount decreased of the powder food for each rat during 0-1 hour, 1-3 hours and 3-6 hours. […]

The test system of another assay is mice. Kind of assay: Intraperitoneal and subcutaneous administration of nesfatin-1 to mice, food intake. Format: in vivo, mouse. The procedure: The sample used in the administration was the recombinant mouse nesfatin-1 prepared in Working Example 16 dissolved in 200 μl of physiological saline so as to contain 10 nmol, and as the control sample, physiological saline (Saline) alone was used. Using a tuberculin syringe equipped with a 25G needle, 200 μl each of the samples was administered once into the abdominal cavity or the hypodermis of the back of each mouse, and the time of administration was immediately before the start (6 p.m.) of the dark period. Other conditions were similar to those in Working Example 18.

A further assay has as its system ICR mice. The experiment in a line: Intraperitoneal administration of nesfatin-1 to ICR mice, food intake. Format: in vivo, mouse. The following applies: 0-3 hours. As to the method:
The experimental animal was 7 week-old male ICR mice purchased from Japan SLC, Inc., and were housed after purchase in a cycle of 12 hours of the light period from 6 a.m. to 6 p.m. and 12 hours of the dark period from 6 p.m. to 6 a.m. the next morning with free access to a pellet food (Nippon Clea, CE-2), kept at 22° C., and housing was continued in a similar condition during the experiment period. The mice purchased were subjected to preliminary housing for over one week, individuals weighing 35-40 g were selected among 8 to 9 week-old individuals and were used in the experiment.
The sample used in the administration was the recombinant mouse nesfatin-1 prepared in Working Example 16 dissolved in 200 μl of physiological saline so as to contain 2 nmol, 10 nmol or 50 nmol, and as the control sample, physiological saline (Saline) alone was used. Using a tuberculin syringe equipped with a 25G needle, 200 μl each of the sample was administered once into the abdominal cavity of each mouse (5 animals per group), and the time of administration was immediately before the start (6 p.m.) of the dark period.
as §1

A further assay relates to rats. Kind of assay: Continuous administration of nesfatin-1 into the rat ventricle, weight of adipose tissue. To be noted: 5 pmol per day, third ventricle, 10 days; vs saline. Format: in vivo. As to the method: Nesfatin-1 (5 pmol per day) or physiological saline alone (the control group) was administered into the third ventricle of a rat using an osmotic pump for 10 consecutive days (5 and 4 rats were used per group). Intraventricular administration into rats by the osmotic pump was carried out in a manner similar to that in Working Example 13.
After the administration of nesfatin-1 or physiological saline alone for 10 days, each rat was sacrificed, dissected to excise all of the abdominal subcutaneous adipose tissue, the epididymal adipose tissue (these are white adipose tissue) and the retroperitoneal brown adipose tissue, and the weight of them was measured. Also, the gastrocnemial muscles of the bilateral hind legs were harvested and the weight of them was measured. From the weight of the tissues measured, their ratio to the body weight of each individual was determined (tissue weight/body weight, mg/g). For testing of significant difference, analysis of variance was used.

B1: nesfatin-1: 82-residue peptide, amino acid Nos. 25 to 106 of nesfatin (SEQ ID NO: 15), solid-phase synthesis (peptide, listed as Rattus norvegicus)
chain: VPIDVDKTKVHNVEPVESARIEPPDTGLYYDEYLKQVIEVLETDPHFREKLQKADIEEIRSGRLSQELDLVSHKVRTRLDEL
For B1, the “amount of food intake” value in the assay on Agouti-yellow mice is given as “significantly decreased”; with C57BL/6J mice, “significantly reduced”; in the assay with Zucker fa/fa rats (0-1 hour and 1-3 hours, P<0.001 vs Saline), “significant reduction”; in the assay with Zucker fa/fa rats (3-6 hours, P<0.05), “significant reduction”; in the assay with mice (10 nmol intraperitoneally (ip), 0-3 hours, P<0.05 vs saline) it was “statistically significant decrease”; with mice (10 nmol intraperitoneally (ip), 0-14 hours) it was “the decrease in the amount of food intake was not significant”. For the same molecule, the “amount of food intake” value in the assay with mice (10 nmol subcutaneously (sc), 0-3 hours) is listed as “tended to decrease”; with mice (10 nmol subcutaneously (sc), 0-14 hours, P<0.005 vs saline) it was “the decrease was significant”; with ICR mice (recombinant mouse nesfatin-1 2 nmol per mouse ip, vs Saline) it was “decreases in the amount of food intake”; in the assay with ICR mice (recombinant mouse nesfatin-1 10 nmol per mouse ip, p<0.05), “statistically significant decreases in the amount of food intake”; with ICR mice (recombinant mouse nesfatin-1 50 nmol per mouse ip, p<0.005) it was “statistically significant decreases in the amount of food intake”. Moreover, the “ratio of tissue weight to body weight, abdominal subcutaneous adipose tissue” value in the assay on rats was “significant decreases”. In the assay on rats, the “ratio of tissue weight to body weight, brown adipose tissue” value is on record as “no significant difference”. Also, in the assay with rats, the “ratio of tissue weight to body weight, epididymal adipose tissue” value is reported as “significant decreases”. For the same molecule, in the assay with rats, the “ratio of tissue weight to body weight, gastrocnemial muscle” value is recorded as “no significant difference”. The “ratio of tissue weight to body weight, mesenteric adipose tissue” value in the assay on rats is “significant decreases”. The “ratio of tissue weight to body weight, retroperitoneal adipose tissue” value in the assay with rats was “tended to decrease but no significant difference”.
